Experimental data taken from patent CN113045675A (BEIJING ROCK EDGE BIOTECHNOLOGY CO LTD, dated 2021).

What was measured:
[1] = molecular target: T1, CD22蛋白胞外段 (CD22 extracellular domain, C-terminal His tag) (human, UniProt P20273 20-687); experiment: SPR, Biacore T200; CD22 amine-coupled to a CM5 chip; screening of clones by affinity
T1 construct: extracellular domain; also called CD22胞外段蛋白; CD22蛋白分子; not shown: C-terminal His tag
T1 sequence (looked up): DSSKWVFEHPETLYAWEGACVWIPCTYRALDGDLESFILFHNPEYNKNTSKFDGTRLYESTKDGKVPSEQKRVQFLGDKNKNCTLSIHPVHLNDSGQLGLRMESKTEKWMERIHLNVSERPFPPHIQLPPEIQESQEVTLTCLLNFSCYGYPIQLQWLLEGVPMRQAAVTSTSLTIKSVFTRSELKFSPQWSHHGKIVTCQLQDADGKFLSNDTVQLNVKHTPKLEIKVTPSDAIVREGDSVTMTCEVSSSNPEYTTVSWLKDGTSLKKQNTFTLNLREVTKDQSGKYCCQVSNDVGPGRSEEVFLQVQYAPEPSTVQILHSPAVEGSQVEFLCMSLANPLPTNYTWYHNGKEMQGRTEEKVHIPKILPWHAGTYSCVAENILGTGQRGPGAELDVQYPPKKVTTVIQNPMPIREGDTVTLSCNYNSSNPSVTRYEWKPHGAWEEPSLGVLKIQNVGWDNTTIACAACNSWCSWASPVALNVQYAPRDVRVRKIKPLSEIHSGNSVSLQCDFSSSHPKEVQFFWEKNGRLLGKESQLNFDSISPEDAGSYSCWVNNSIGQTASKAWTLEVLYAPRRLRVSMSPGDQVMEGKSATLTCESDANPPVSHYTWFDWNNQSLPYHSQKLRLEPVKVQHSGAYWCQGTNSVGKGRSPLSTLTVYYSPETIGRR

[2] = molecular target: T1, CD22蛋白胞外段 (CD22 extracellular domain, …); experiment: SPR, Biacore T200; CD22 amine-coupled to a CM5 chip; nanobody at 2, 4, 8, 16 and 32 nM; curve fit

B1: BA125纳米抗体 (BA125 nanobody, VHH against CD22, C-terminal His tag) (VHH)
VHH: QVQLVESGGGLVQPGGSLRLSCAASGSIFGSNTMGWFRQAPGQQRELVAAMSTLGRTSYAVSVKGRFTISRDNAKNTVYLQMNSLKPEDTAVYYCKYTGTTPRDIYWGLGTQVTVSS
notes: also called 纳米抗体BA125克隆; BA125纳米抗体VHH区; not shown: C-terminal His tag
- Kd [1]: ~10 nM
- Kd [2]: 9.47 nM
